Assay results reported in paper PMC3297588.

Target: holo-hemoglobin (UniProt P01966)
Assay: SPR

Chain of UniProt P01966 (P01966 whole entry, chain 1 of 2): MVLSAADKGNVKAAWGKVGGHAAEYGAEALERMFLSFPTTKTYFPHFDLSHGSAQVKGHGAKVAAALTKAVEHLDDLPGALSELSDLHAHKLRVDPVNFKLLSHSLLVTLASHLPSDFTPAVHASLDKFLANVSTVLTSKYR
Chain of UniProt P01966 (P02070 whole entry, chain 2 of 2, further chain): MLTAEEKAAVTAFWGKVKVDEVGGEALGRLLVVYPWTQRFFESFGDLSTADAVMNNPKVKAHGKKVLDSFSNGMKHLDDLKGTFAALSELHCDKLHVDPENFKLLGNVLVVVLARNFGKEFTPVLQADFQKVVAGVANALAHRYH

## IsdX1 (amino acids 26-146), wild-type, apo form (domain or fragment)
  Kd: 15 nM
